Measurements published in patent US20260274984A1 (NATIONAL RESEARCH COUNCIL OF CANADA, published 2026).

Tests used:
[1] = biological target: recombinant human mesothelin extracellular domain, isoform 1 (hMSLN-ECD, 10xHis) (human) (UniProt Q13421); assay: SPR (Biacore T200), VHH over immobilized hMSLN-ECD, 1:1 model
[2] = biological target: human mesothelin on MSLN-positive cells (NCI-H292, SKOV3) (human) (UniProt Q13421); assay: cell-based or functional assay
[3] = biological target: T1, recombinant mouse mesothelin extracellular domain (mMSLN-ECD) (mouse, UniProt Q61468 298-600, limits assumed); assay: SPR, VHH over immobilized mouse MSLN-ECD
T1 construct: extracellular domain; also called mouse MSLN; mouse MSLN-ECD
T1 sequence (looked up): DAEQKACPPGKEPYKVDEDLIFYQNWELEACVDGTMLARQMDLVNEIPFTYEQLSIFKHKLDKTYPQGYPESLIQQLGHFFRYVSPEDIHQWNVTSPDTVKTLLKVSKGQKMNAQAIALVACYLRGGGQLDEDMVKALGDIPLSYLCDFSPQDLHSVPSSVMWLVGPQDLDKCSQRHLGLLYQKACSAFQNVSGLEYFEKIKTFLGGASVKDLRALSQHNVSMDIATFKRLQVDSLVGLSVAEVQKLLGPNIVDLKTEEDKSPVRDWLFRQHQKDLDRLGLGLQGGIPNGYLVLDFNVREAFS
Procedure: For surface Plasmon resonance, as mentioned above selected VHHs were passed though size exclusion columns, Superdex 75 (GE Healthcare), respectively, in 10 mM HEPES, pH 7.4, containing 150 mM NaCl, 3 mM EDTA, and monomeric sdAb fractions were collected and protein concentrations were determined by measuring absorbance at 280 nm (A280). SPR analysis were performed with Biacore T200 instrument (GE Healthcare). All measurements were carried out at 25° C. in 10 mM HEPES, pH 7.4, containing 150 mM NaCl, 3 mM EDTA and 0.005% surfactant P20 (GE Healthcare). Approximately 500 RUs of the recombinant monomeric human and mouse MSLN-ECD (obtained after SEC purification of the MSLN-ECD) were captured on SA sensor chip (GE Healthcare) at a flow rate of 5 uL/min. Various concentration of the monomeric VHHs (20-500 nM) were injected over MSLN-ECD surface, respectively using an SA surface as a reference at a flow rate of 40 μL/min. Surfaces were generated by washing with running buffer. Data were analysed with BIAevaluation 4.1 software.
The monomeric fraction of VHHs obtained by SEC purification were used for SPR experiment where the human or mouse MSLN-ECD was immobilized onto the […] and various VHH concentration (20-500 nM) were passed over the sensor chip. […] All of the data collected fit a 1:1 binding model (Table 3A).

[4] = biological target: recombinant human mesothelin extracellular domain, isoform 1 (hMSLN-ECD, 10xHis) (human) (UniProt Q13421); assay: SPR (Biacore T200), VHH over immobilized hMSLN-ECD; no rate constants printed
[5] = biological target: T2, human mesothelin on MSLN-positive cells (NCI-H292, SKOV3) (human, UniProt Q13421 296-598); assay: Mirrorball microplate cytometry on adherent NCI-H292 (MSLN-positive) cells, 2 h; biotinylated VHH detected with streptavidin-PE; MMFI
T2 construct: whole, on cells; Endogenous expression on tumour cell lines; H1581 and Raji cells served as MSLN-negative controls; also called cell surface MSLN
Procedure: Cells (5000 cells well-1) were seeded in Nunc® MicroWell 96-well optical bottom plates (Sigma-Aldrich) and incubated at 37° C. in a humidified atmosphere containing 5% CO₂ for 24-48 h. Each anti-MSLN biotinylated VHH was serially diluted in Live Cell Imaging Solution (LCIS; Thermo Fisher) and 50 μL of each Ab variant was added to the assay plate and incubated at 4° C. for 2 h. As positive control, anti-MF-T (human IgG1) monoclonal antibody (NRC-HHT-Montreal) was used. The wells were washed with LCIS, then Biotin-Streptavidin, R-Phycoerythrin Conjugate (SAPE) or donkey anti-Human Alexa Fluor (AF488) (at 3 ug/ml final concentration) was added to the wells and incubated at 4° C. for 1 h. The secondary Ab was removed, the cells were washed with LCIS then 50 μL of DRAQ5 nuclear stain (1 μM prepared in LCIS; Cell Signaling, Danvers, MA, USA) was added to wells and incubated for 10 min at 4° C. […] Data were analyzed using Cellista software (TTP Labtech) and GraphPad Prism 6 software. […]
Cell binding activities of the selected VHHs were examined by Mirrorball where negative-(NCI-H1581) and positive (NCI-H292)-MSLN cells were cultured in 96 well plate and binding of the biotinylated VHHs was detected by Streptaviding-PE conjugate. As positive control, a human IgG1 mAb MF-T was used which was detected by donkey anti-human […].

T2 sequence (Q13421 other isoform, or with tags, fused parts or gaps limits assumed): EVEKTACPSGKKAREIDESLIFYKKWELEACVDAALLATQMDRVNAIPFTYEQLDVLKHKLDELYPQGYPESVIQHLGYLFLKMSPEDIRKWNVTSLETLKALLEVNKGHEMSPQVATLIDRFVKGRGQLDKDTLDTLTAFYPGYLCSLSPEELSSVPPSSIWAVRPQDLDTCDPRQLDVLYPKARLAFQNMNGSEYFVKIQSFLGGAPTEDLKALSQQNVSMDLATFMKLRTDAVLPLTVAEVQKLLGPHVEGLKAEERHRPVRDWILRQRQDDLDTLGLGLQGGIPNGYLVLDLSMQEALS
human mesothelin on MSLN-positive cells (NCI-H292, SKOV3) (human), sequence (Q13421 other isoform, or with tags, fused parts or gaps limits assumed): as above

Row | Binder | Kd [1] [nM] | EC50 of CD69 staining of Jurkat cells in co-culture with MSLN+ H292 cells [2] [nM] | binding result [3] | Kd [4] [nM] | koff [1] [s⁻¹] | kon [1] [M⁻¹ s⁻¹] | Kd [3] [nM] | EC50 (read off the curve) [5] [nM]
1 | hMSLN-TP7-5 (VHH, Llama VHH expressed in E. coli; biotinylated form used in the Mirrorball assay; also called VHH # 2) VHH: QVKLEESGGGLVQAGGSLRISCAASGRSISDYFMGWFRQTPGKEREFVAAISWSGGTAYYADSVKGRFTISRDNAKNTGYLQMNSLKPEDTAVYFCAARLSYDSRTSLQNSYDYNYWGQGTQVTVSS | 57.2 | 1 | no binding (tested: 20-500 nM) | – | – | – | – | –
2 | hMSLN-bioTP7-48 (VHH, Llama VHH expressed in E. coli; also called VHH # 10) VHH: QVKLEESGGGLVQPGGSLRLSCTASGSIWSASGLTWYRQRPGNERELVASITTGGETTWYADSVKGRFTISISRDNGKMITYLQMNSLKPEDTAVYLCNSRSYWGQGTQVTVSS | – | – | no binding (tested: 20-500 nM) | 276 | – | – | – | –
3 | hMSLN-mTP7-82 (VHH, Llama VHH expressed in E. coli) VHH: QVQLVESGGGLVQAGGSLRLSCAASGSIRSASGMHWYRQAPGKERELVASITTSGETTWYRDSVKGRFTISINNAKMMLYLQMNSLKFEDTAVYYCNLRSYWGQGTQVTVSS | 0.0579 | – | – | – | 0.000176 | 3.04e+06 | 145 | –
4 | hMSLN-bioTP7-7 (VHH, C-terminal His tag and AviTag from vector pMRO; letters not given, left off, Llama VHH expressed in E. coli) VHH: QVQLVESGGGLVQAGGSLRLSCAASGRTVSTYNMAWFRQAPGKEREIVAVINWTGGSTYYAESVKGRFTISRDNPKNTVYLQMNSLKPEDTAVYYCAATRTSWTENTYWGQGTQVTVSS | 0.0924 | – | – | – | 0.000351 | 3.8e+06 | 218 | –
5 | hMSLN-TP7-9 (VHH, Llama VHH expressed in E. coli; biotinylated form used in the Mirrorball assay; also called VHH # 3) VHH: DVQLVDSGGGLVQAGGSLRLSCAASGRTVSTYNMAWFRQAPGKEREIVAVINWTGGSTYYAESVKGRFTISGDNPKNTVYLQMNSLKPEDTAVYYCAATRASWTENTYWGQGTQVTVSS | 1.34 | – | no binding (tested: 20-500 nM) | – | 0.00238 | 1.78e+06 | – | ~3
6 | hMSLN-TP7-38A (VHH, Llama VHH expressed in E. coli; also called VHH # 6) VHH: QVKLEESGGGLVQPGGSLRLSCAASGRTVSAYNMAWFRQAPGKEREIVAVINWTGGGTYYAESVKGRFTISRDNPKNTVYLQMNSLKPEDTAVYYCAATRTSWTENTYWGQGTQVTVSS | – | – | no binding (tested: 20-500 nM) | – | – | – | – | –
7 | hMSLN-TP7-56 (VHH, C-terminal His tag and AviTag (biotinylated in the Mirrorball assay) from vector pMRO; letters not given, left off, Llama VHH expressed in E. coli; biotinylated form used in the Mirrorball assay; also called VHH # 7) VHH: QVQLVESGGGLVQAGGSLRISCVASGRDFSSHFMGWSRQAPGKEREFVAAISWSGGTTYYADSVKGRFAISRDNDKTTVYLQMNSLKPEDSAVYYCAARRTYDSRTSLRNSYDYPYWGQGTQVTVSS | 26.5 | – | no binding (tested: 20-500 nM) | – | 0.0201 | 757000 | – | –
8 | hMSLN-bioTP7-53 (VHH, Llama VHH expressed in E. coli; also called VHH # 11) VHH: QVQLVESGGGLVQPGGSLRLACAASGGIGSLSNVRWYRQGPGKEREYVAGITGQSTTYYADSVKGRFTISRDNVKNTVDLQMNSLKPEDTAVYICNVATLRNEYWGQGTQVTVSS | 0.571 | – | no binding (tested: 20-500 nM) | – | 0.000433 | 758000 | – | –
9 | hMSLN-TP7-4 (VHH, Llama VHH expressed in E. coli BL21(DE3), IMAC purified, monomeric SEC fraction used for SPR; biotinylated form used in the Mirrorball assay; also called VHH # 1) VHH: QVQLVGSGGGLVRAGGSLRLSCAGSGLTFGSYAMAWYRQAPGKQRELVASISSRGVTNYADSVEGRFTISRDNAKSTVYLQMNDLKPEDAAVYYCNAKGPFMLREYDYWGQGTQVTVSS | 0.225 | – | – | – | 0.000388 | 1.72e+06 | 300 | ~1
10 | hMSLN-TP7-18 (VHH, Llama VHH expressed in E. coli; also called VHH # 4) VHH: EVQLVESGGRLVQAGGSLRLSCVASGRAFKWWTMGWFRQAPGKEREFVASISWSDGSTTYGDSVKGRFAISRDNNKNTVYLQMNSLTPEDTAVYYCARYGKDLSGRHSKNVQDYDYWGQGTQVTVSS | – | – | no binding (tested: 20-500 nM) | – | 0.0138 | – | – | –
11 | hMSLN-TP7-35 (VHH, C-terminal His tag and AviTag from vector pMRO; letters not given, left off, Llama VHH expressed in E. coli; also called VHH # 5) VHH: QVQLVDSGGGLVQPGGSLRLSCTTSASTFRFFAMHWYRQAPGKERELVAVISRDGDAEYVDSVKGRFTISRDNAKNAVYLQMNSLKPEDTAVYYCHTRILSDHYWGQGTQVTVSS | – | – | no binding (tested: 20-500 nM) | – | – | – | – | –
12 | hMSLN-biomTP7-41 (VHH, C-terminal His tag and AviTag from vector pMRO; letters not given, left off, Llama VHH expressed in E. coli; also called VHH # 9) VHH: QVQLVESGGGLVQPGGSLRLSCTASGIVRASGMAWYRQAPGKQRELVASITTGGETTWYADSVKGRFTISIDNAKMMLYLQMNALKPEDTAVYLCNQRSYWGQGTQVTVSS | – | – | no binding (tested: 20-500 nM) | 214 | – | – | – | –
13 | hMSLN-TP7-75A (VHH, Llama VHH expressed in E. coli; also called VHH # 12) VHH: QVQLVESGGGLVQAGGSLSLSCAASGRTFSASAMAWFRQAPGTDREFVAAVAWGGRDTHYADSVKGRFTISMNNAKNTVVLQMNSLKPEDTAVYYCAAGQRGWSHSTSRDYDYWGQGTQVTVSS | 52 | – | no binding (tested: 20-500 nM) | – | 0.0305 | 587000 | – | –
